From the DeepSol protein solubility set come the findings set out here.

This data set is described as follows: soluble on expression in E. coli; label from the status in PepcDB or PDB records.
“MSKSALDPVEFLKGALEIPSPSGKERAVAEYLAEGMQKLGLKGFVDEADNARGQVGEGPVQVVLLGHIDTVPGQIPVRLEGGRLFGRGAVDAKGPFVAMIFAAAGLSEEARRRLTVHLVGATEEEAPSSKGARFVAPRLKPHYAVIGEPSGWEGITLGYKGRLLVKARREKDHFHSAHHEPNAAEELISYFVAIKAWAEAMNVGQRPFDQVQYTLRDFRVHPAELRQVAEMFFDLRLPPRLPPEEAIRHLTAYAPPTIELEFFGREVPYQGPKDTPLTRAFRQAIRKAGGRPVFKLKTGTSDMNVLAPHWPVPMVAYGPGDSTLDHTPYEHVEVAEFLKGIEVLRGALEALAQTHAGEKEG”: the “soluble on expression in E. coli” value is recorded as “soluble”. The entry for “MMLAGCGPIEPDYPNNKYTLTWYCTSDDGTCERVVELRRYDRASIQNNDLTIWDSQDPGGAIEALIVYSDSLPQHCDRIFYLVFFGHEIEEPRYCGNHYAFEIELSIPDEDPATSSRWVISAAPLD” is “not soluble”; for “MKKLSFFLIATLSLGACSTATSPTGRHQVFSGVSQQQLNQLGEQAFVEIKAKEKISGNVRQNAYVRCVVDALVTELPLQWRHVKWETVLFLNEEPNAFALPGGKVGVNTGIFRAAKNQEQLAAVLGHEIGHVVSRHHEERITWQLGTQAGLGLLGVLAGTAYGDSAATAVNQIGGLTAQAAFLLPGSRTQEREADIVGQRLMAQAGFDPIQAVYLWKNMLAIAGQRPPQWLSTHPDPTNRIRQLEQQSAVLASVYAQARDAGRVPHCSPAALEHHHHHH” it is “not soluble”. Under “MIEISTSSTTTTLLVAGDLDLAEREQFPEVTARVVGLRRQLLVIDMCRVTFMDSTGAAFLISLADAGRRRGGATVLRGAADRDLFVLEICGALELFRIDADHHCELGAELPSAPEGAPAPA” stands “not soluble”; under “MELVHEIAIDPNFQIPDKPTNAIQRCVQESMHKAYYNQLRRDLAKDPPELEYCFSFLMEVKTMILDDILTAQHTRLKAEINSMLDETALRGKLDQGQLDIKKVMKYIVDLCSRLCSPARDVKVAELRTRTDVIDIFEGTMDLLELMKNDLTNYQISQNRAAIEEYSSKHEYDMFQKFLIENPNGCYFARQWLKAAYDELFEKKLDAEGEETSVKKERKNEDTDTVLIDTTSRGYTKLIQVNEYDGFPETLKIDKIKIELLAEKFLQIVMCASSVFVTCNVAGKQISESADFKKTLKDHLIVITNNTDEERIKSDLEKIGEQCVKEAVDTSKKLNIEWNTESSTSIRNQINALISSDNPIRKLVHTRVSTFVEEMLRSPTSVPHRLLPGLSVIQSELCAFTSKFLRLCVHNRKTFYAMYSNLIQEFQGHTPSTHAIYRADSPSSMPGPSTSA”, “not soluble”; under “MSLKIGIIGASGKAGNEILKEAKKRGHEVTAIVRNASKVQEQDVAILEKDVFELTAEDIKPFDAVVNAFGAAPGQEHLHVEAGRALISILKDAKHTRLLVVGGAGSLFVDEAKTTRLMDTPEFPKEYLPTASNQGENLKDLQQTDSISWTFLSPAAFFDPAGKRTGSYQKGKDNVIVNAKGDSYISYADYAIAVLDELEHPEHKNERFTVVSEAEEGGSHHHHHH”, “soluble”.

For the sequence “MSNSHHTSMRGNDMSDNIRVGLIGYGYASKTFHAPLIAGTPGLELAVISSSDETKVKADWPTVTVVSEPKHLFNDPNIDLIVIPTPNDTHFPLAKAALEAGKHVVVDKPFTVTLSQARELDALAKSLGRVLSVFHNRRWDSDFLTLKGLLAEGVLGEVAYFESHFDRFRPQVRDRWREQGGPGSGIWYDLAPHLLDQAITLFGLPVSMTVDLAQLRPGAQSTDYFHAILSYPQRRVILHGTMLAAAESARYIVHGSRGSYVKYGLDPQEERLKNGERLPQEDWGYDMRDGVLTRVEGEERVEETLLTVPGNYPAYYAAIRDALNGDGENPVPASQAIQVMELIELGIESAKHRATLCLA”, the “soluble on expression in E. coli” value was “soluble”. The entry for “MGSDKIHHHHHHMIETQKEQERALLVGVELQQTDNFDMSMEELASLAKTAGALVKGVYTQKREKYDSKTFVGSGKLDEIAQMVEADEIDTVIVNNRLTPRQNVNLEEILGVKVIDRMQLILDIFAMRARSHEGKLQVHLAQLKYMLPRLVGQGIMLSRQAGGIGSRGPGESQLELNRRSIRNQIHDIERQLKTVEKNRATVRERRLQSGVFKIGLIGYTNAGKSTIMNVMTDKRQYEADELFATLDATTKQINLADKFNVTLTDTVGFIQDLPTELISAFKSTLEESMNVDLLLHIIDASDPNHSEQEQVVLDILKDLDMLDIPRLALYNKLDKTDDSFTPSQFPHVMLSAKDENAKGHIQMMVLAKIKTMFERFEVRVPLAESYKLHDLATLALIENRTYEEDVEVVSGYIASANKWKLEEFYDGLS” is “not soluble”; for “MADNPASSSSQQLLALRVMRLARPKFAPVDGFSHDPVDPTGFGELLAGKVSEISKESRQDLPIGEYLIAPQMFENIYLGETFTFYVNVVNESEKTVSSVSLKCELQTSTQRVVLPCSVQDATIESSKCEGQVISHEVKEIGQHILICSVNYKTSNGENMYFRKFFKFPVSKPIDVKTKFYSAENQDVYLEAQIENTSNANMFLEKVELDPSQHYNVTSIAHEDEFGDVGKLLKPKDIRQFLFCLTPADVHNTLGYKDLTSIGKLDMSWRTSMGEKGRLQTSALQRIAPGYGDVRLSVEKTPACVDVQKPFEVSCRLYNCSERALDLQLRLEQPSNRHLVFCSPSGVSLGQLPPSQHVDFSLNVFPVTVGIQSISGIRITDTFTKRIYEHDDIAQIFVS” it is “not soluble”; for “MAPAPRFSAEEQERLIICAAIKAIEESSLLDFSMSAIAKLAGLSMGSVYKFVQCKEDVLIALATRMYQERQSVFKKVLALPLTTPERIIATSLLDFSKVQMYNFDNQLESIVNTEAMMKRCSERWLTQMIACGERCQTMFQQFLQNAADSGELTSGSRDIEEINLGTWSLSVGYFQTVRLHQCWHNDLDENIDGINDEENEKNTLVLAADNAHIRTMKRLVNTYDWQQKISDDDIEKVCLHLADAALR” it is “not soluble”. The entry for “MHCNDGGPATLGLFSDSDLQQPARVEVLGPQSRVLRGFALPWVEALLPQLDAVLAAAPFRQMQTPGGFTMSVGLSSCGQLGWTTDRSGYRYSPIDPQSQRPWPALPKVFQELAEAAAEAAGFPGFAPDSCLINCYRPGAKMSLHQDKNERDYSAPIVSLSLGLPAIFLFGGRQRSDKSQRVALLHGDVVVWGGVDRLRYHGVLALKDGHHPLLGQQRINLTLRRAGLEHHHHHH” is “not soluble”; for “MAHHHHHHMTGSDEEFEIGDILDIKKKKNGFIYLVNWKGYSDDENTWEPESNLLHLTTFKKKMELLKSAYLNKVDTTQNDGNLLKNHLTSPSSLQEETGTTNITKTKGRNPLISKKKGNKKGVTNKLEAKKLLSTNSDNSQKMSDDEYNESIKQETIENPHDSSLLNVEDVYSVRIKNRKMEFLASLKNASPQWVEESNIRRTGHLNIKVNDFKKYIRRKKTSKGNRIVIKNLHNVGDELYISVIHNINNKEIHSLYPSKVIEYIYPQELLNFLLSRLRYRTA” it is “soluble”. The entry for “VAIDTVITDMDGTLLVKKGDQIHPLNKEVLINWQADGKKLFLATGRLDLAILPFIHELNIKTPVISCNGGLVRDFTTGEILYKSNIELDLVHTVLETLEPLGVNYHIYTTERIIGPTNTGKIAFFNELNKTLSENEQVPITLTTDPFSVLREGEFPLKVLVIESDLEKRAEIKAALQGLPLSVLASASNLIDIMNEGIDKAKGLTYLADNGYINLNSTIAFGDNENDVGMIELAEIGVAMENGIPLALEKADKIAKHHDIGGLGLFMQEEIL” is “not soluble”. With “MERAHRIDLKLLRYFLAVAEELHFGRAAARLNMSQPPLSIHIKELEQQLGTLLFIRHSRSVALTHAGKVLMEESRRLLASANQALARVEQIGRGEAGRIELGVVGTALWGRMRPAMRHFLKANPNVEVLFREKSPGMQMALLERRELDAGIWRMAIEPAVGFTSIRLHESAFMVAVPEDHDLASRDSVPLAALRNEYFVTLPSVHSDWGFLQRVCQQAGFSPMIIREVVEPQTVLAMISMGIGITLMADGYAQMSWPGVVFRPLEERIPADLYIVYDQQQATPALEKLVAALTV”, the “soluble on expression in E. coli” value is given as “not soluble”. On to “MAHHHHHHMTSFMLATNCPDELCCALCLDSWKKPVELQPCGHIFCQECIGAPRVCPVCRAPVNCTKQPHRSLVNLAQNLPVRCSSCGWTGRREGSDSHTCPTASWSGSTEAPSTTNAQSTCQGSRQQSVADTPWLRYGLTQEEYDSIVALFVFFDSDESGHLCREEMGRLARWLNFARTDDDIDRMFREMDEDGTGTLCLEEFLSWLSKNRPDPSVLYGMSQQQYNCVMMQFRLYDRDRDGFLDADDFSKLAVRIGDVPDIESGMQLFRSITTGHCEKIGLHQFLLYCVGRMFR”, for which the “soluble on expression in E. coli” value is “not soluble”. The entry for “MGSDKIHHHHHHEADNYEPPKVDLKDQIPIILIHGSGGNASSLDKMADQLMNEYRSSNEALTMTVNSEGKIKFEGKLTKDAKRPIIKFGFEQNQATPDDWSKWLKIAMEDLKSRYGFTQMDGVGHSNGGLALTYYAEDYAGDKTVPTLRKLVAIGSPFNDLDPNDNGMDLSFKKLPNSTPQMDYFIKNQTEVSPDLEVLAIAGELSEDNPTDGIVPTISSLATRLFMPGSAKAYIEDIQVGEDAVHQTLHETPKSIEKTYWFLEKFKTDETVIQLDYK” is “not soluble”; for “MKIVFLECSVELVPRSLWSHPQVLKSARRYGIEPGDLLLDKSLHYNAMAELPAKWKRGRPDILHVALLTTTDSPLYNEGLLRIYFQVYDGRLFEVGTGVRVPKNYERFRGLVAQLLKTERVPPGEGEALIRLHSRSLAEFVEREGRFILMWEKGSPTTTTYVAARALSTGLPIGVGCFPRGEFKRSTLRKASEAYSIMGGAPLKTWGVASRIVYALERLKSPFTLEHHHHHH” it is “soluble”; for “MGSDKIHHHHHHMAKIHMVLQGKGGVGKSMIAATIAQYKAGKGQKPLCIDTDPVNATFEGYKALNVRRLNIMDGDEINTRNFDALVEMIASAEGDVIIDNGASSFVPLSHYLISNQVPALLQDMGHELVVHTVVTGGQALVDTVSGFAQLASQFPAECLFVVWLNPYWGPIEHEGKGFEQLKAYTTNKGRVSAIIQIPALKEETYGRDFAEMLQDRRTFDEALADSALTIMTRQRLKIVKTQLFAQLENAAVL” it is “not soluble”. The entry for “MEDRNNIYFFYKHTKSMQEAVEPLKQLATSQGLNVVDDVQKANIIVSVGGNNAFLQATRKTNFRSDCLYVGVSTDREGFYPDFTINEIDKMFEAFENQNIEVKRLSTLEVTIDDEKPFYCLNECSIRSNVIKTFVLEVFIDDMHFETFRGDGMIVSTPTGSTAYNKSVRGAVVDPRLPSLQVSEIASLNNNTYRTLGTSFLLSGDRTLRLKVVQDGNDFPIIGADNEALSIRHAEDIKIRLSDKQVKVLKLKDNTFWHKVQRNFLLEHHHHHH” is “soluble”; for “MKNTKLLLAIATSAALLTGCQNTHGIDTNMAISSGLNAYKAATLSDADAKAIANQGCAEMDSGNQVASKSSKYGKRLAKIAKALGNNINGTPVNYKVYMTSDVNAWAMANGCVRVYSGLMDMMNDNEIEGVLGHELGHVALGHSLAEMKASYAIVAARDAISATSGVASQLSRSQLGDIAEGAINAKYSRDKESEADDFSFDLLKKRGISTQGLVGSFEKLASLDGGRTQSMFDSHPPSTERAQHIRDRIASGKLEHHHHHH” it is “soluble”; for “MALTATVRRAELQISDMDRGYYANHSLTLAQHPSETDERLMVRLLAFALFADDRLEFGRGLSNDDEPDLWRRDYTGDPDLWIDLGQPDESRVRKACNRSREAVVIGYGGQATETWWKKHANAMGRYRNLRVIELDSQATEALGALIQRGMRFDVIIQDGEVQMLADHGSVTLTPMVRQAPAE” it is “soluble”.
